The values that follow are results of earlier work, collected in paper PMC9842050.

Where two headings read alike, the source gives them in different places.

Data set [1] deals with GLP-1R (Homo sapiens) (UniProt P43220). Description: radioligand competition binding.
The target is the same in data set [2]. Description: radioligand competition binding. The source holds these as a separate data set.
Data set [3] has as its target CXCR4 (Homo sapiens) (UniProt P61073).
For data set [4] the target is unchanged. This is another data set of the same source.

Sequence of SDF-1α (P48061 24-88): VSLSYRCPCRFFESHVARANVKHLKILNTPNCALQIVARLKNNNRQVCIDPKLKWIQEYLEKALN
Sequence of exendin-4 (P26349 48-86): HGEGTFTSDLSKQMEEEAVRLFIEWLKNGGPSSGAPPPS
Sequence of GLP-1R (Homo sapiens) (P43220 24-463): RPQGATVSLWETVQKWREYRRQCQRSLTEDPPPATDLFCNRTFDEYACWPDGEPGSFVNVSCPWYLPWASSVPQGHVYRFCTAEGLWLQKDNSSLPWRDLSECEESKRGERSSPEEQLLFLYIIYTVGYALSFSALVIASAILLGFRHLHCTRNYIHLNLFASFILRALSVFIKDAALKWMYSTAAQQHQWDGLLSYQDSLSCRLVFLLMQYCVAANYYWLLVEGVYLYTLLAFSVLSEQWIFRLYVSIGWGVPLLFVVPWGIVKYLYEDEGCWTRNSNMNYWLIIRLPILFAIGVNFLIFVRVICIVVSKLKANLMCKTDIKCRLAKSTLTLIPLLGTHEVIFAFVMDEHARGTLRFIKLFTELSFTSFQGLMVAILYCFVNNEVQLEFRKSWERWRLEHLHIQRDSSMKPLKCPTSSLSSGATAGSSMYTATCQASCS
Sequence of CXCR4 (Homo sapiens) (P61073 whole entry): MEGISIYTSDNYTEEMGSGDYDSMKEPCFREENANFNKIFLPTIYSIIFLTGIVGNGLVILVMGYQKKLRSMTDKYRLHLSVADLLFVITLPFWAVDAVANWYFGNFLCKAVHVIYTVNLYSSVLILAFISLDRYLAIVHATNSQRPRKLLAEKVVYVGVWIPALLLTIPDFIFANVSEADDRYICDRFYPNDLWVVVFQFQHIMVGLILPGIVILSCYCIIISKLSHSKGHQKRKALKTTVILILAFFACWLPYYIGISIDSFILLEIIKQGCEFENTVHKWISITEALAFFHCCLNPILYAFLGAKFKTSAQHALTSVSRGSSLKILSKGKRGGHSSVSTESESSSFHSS

On to exendin-4 (from UniProt P26349), for which the Kd (usually the constant that tells how readily two partners part at equilibrium) is 37.8 nM with GLP-1R (Homo sapiens) [1] and 54.3 nM with GLP-1R (Homo sapiens) [2].

In the case of SDF-1α (from UniProt P48061), the results for the Kd with CXCR4 (Homo sapiens) [3] and with CXCR4 (Homo sapiens) [4] were 1.4 nM and 8.4 nM, respectively.
